Data set [1] has as its system T1, N[C@@H](CCc1ccccc1)C(=O)O.
T1 construct: full-length ido (240 aa without tag) in pET-28a(+) NcoI/SalI, expressed in E. coli BL21(DE3), Ni column
Kind of data set: succinate release, succinic acid assay kit; Michaelis-Menten fit. The class given is biochemical, Bacillus thuringiensis. As to conditions: 10 mM alpha-KG, 0.5 mM FeSO4, 10 mM ascorbic acid, 50 mM Bis-Tris pH 6.0, 25 °C. The text has this:
(§1) succinate release, succinic acid assay kit; Michaelis-Menten fit on L-isoleucine dioxygenase (IDO)

For data set [2], the system named is T2, N[C@@H](Cc1ccccc1)C(=O)O.
T2 construct: full-length ido (240 aa without tag) in pET-28a(+) NcoI/SalI, expressed in E. coli BL21(DE3), Ni column
The data set is described as above. The class given is biochemical, Bacillus thuringiensis. To be noted: 10 mM alpha-KG, 0.5 mM FeSO4, 10 mM ascorbic acid, 50 mM Bis-Tris pH 6.0, 25 °C.
Source text: as §1

From paper PMC10180240, “Semi-Rational Design of L-Isoleucine Dioxygenase Generated Its Activity for Aromatic Amino Acid Hydroxylation” (Molecules, 2023) come the findings set out here.

By Km is commonly meant the concentration of substrate that gives half-maximal velocity. What is called Vmax is the rate approached at saturating substrate. As a reminder, the kcat is the number of substrate molecules converted per active site and unit of time at saturation. One may read the kcat/Km as the second-order rate constant that governs catalysis at low substrate concentration. Consider “L-isoleucine dioxygenase (IDO) (Bacillus thuringiensis; S153Y)”, for which, in data set [1], the Km was 20 ± 0 µM, the Vmax amounted to 0.08 µmol/min/mg, the turnover number (kcat) was determined as 0.03 s⁻¹ and the kcat/Km amounted to 1500 ± 40 M⁻¹ s⁻¹.
On the same counts, the results for “L-isoleucine dioxygenase (IDO) (Bacillus thuringiensis; S153Q)” are 40 ± 10 µM, 0.21 µmol/min/mg, 0.14 ± 0.01 s⁻¹ and 3500 ± 100 M⁻¹ s⁻¹.
For the substance “L-isoleucine dioxygenase (IDO) (Bacillus thuringiensis; S153A)”, in data set [1], the Km came out at 20 ± 0 µM, the Vmax is 0.09 µmol/min/mg, the catalytic constant (kcat) was determined as 0.05 s⁻¹ and the catalytic efficiency (kcat/Km) was found to be 2500 ± 40 M⁻¹ s⁻¹. Moreover, in data set [2], the Km is 20 ± 0 µM, the Vmax stood at 0.05 µmol/min/mg, the kcat was 0.03 s⁻¹ and the kcat/Km was 1500 ± 50 M⁻¹ s⁻¹.
“L-isoleucine dioxygenase (IDO) (Bacillus thuringiensis; Y143D)”: in data set [2], the Km stood at 40 ± 0 µM, the Vmax is 0.15 µmol/min/mg, the kcat is 0.08 s⁻¹ and the kcat/Km turned out to be 2000 ± 10 M⁻¹ s⁻¹.
On to “L-isoleucine dioxygenase (IDO) (Bacillus thuringiensis; Y143I)”, for which, in data set [1], the Km is 20 ± 0 µM, the Vmax is 0.08 µmol/min/mg, the turnover number (kcat) worked out at 0.04 s⁻¹ and the specificity constant (kcat/Km) amounted to 2000 ± 80 M⁻¹ s⁻¹. Also, in data set [2], the Km turned out to be 30 ± 0 µM, the maximal velocity (Vmax) is 0.1 µmol/min/mg, the kcat came out at 0.04 s⁻¹ and the specificity constant (kcat/Km) was determined as 1330 ± 40 M⁻¹ s⁻¹.
